B1: Plasmodesmata-located protein 5 (PDLP5), EGFP or mCherry fusion [Arabidopsis thaliana] / Plasmodesmata-located protein 5 (PDLP5), EGFP or mCherry fusion [Arabidopsis thaliana] (parent)
chain 1: SPTDNYIYAVCSPAKFSPSSGYETNLNSLLSSFVTSTAQTRYANFTVPTGKPEPTVTVYGIYQCRGDLDPTACSTCVSSAVAQVGALCSNSYSGFLQMENCLIRYDNKSFLGVQDKTLILNKCGQPMEFNDQDALTKASDVIGSLGTGDGSYRTGGNGNVQGVAQCSGDLSTSQCQDCLSDAIGRLKSDCGMAQGGYVYLSKCYARFSVGGSHARQTPGPNFGHEGEKGNKDDNGVGKTLAIIIGIVTLIILLVVFLAFVGKCCRKLQDEKWCK
chain 2: B1 chain 1
B2: Plasmodesmata-located protein 5 (PDLP5), EGFP or mCherry fusion [Arabidopsis thaliana] / itself (parent)
chain: B1 chain 1

Variants of: B1
Assay: FRET
Conditions: with Plasmodesmata-located protein 5 (PDLP5), at plasmodesmata, PDLP5-EGFP donor and PDLP5VV-mCherry acceptor, n=21, parent: 20, read off a plot

Variant | response (% FRET efficiency)
chain 1 A241V G245V | 16

Same assay, conditions: with Plasmodesmata-located protein 5 (PDLP5), at plasmodesmata, PDLP5VV-EGFP donor and PDLP5-mCherry acceptor, n=15, parent: 20, read off a plot

Variant | response (% FRET efficiency)
chain 1 A241V G245V | 19

Variants of: B2
Assay: FRET
Conditions: with itself; at plasmodesmata; EGFP-fused donor and mCherry-fused acceptor; n=12; parent: 20; read off a plot

Variant | response (% FRET efficiency)
chain 1 A241V G245V | 17

Reference: article PMC7275062
